Results on 5 molecules are retold here after publication PMC12002313 (Proceedings of the National Academy of Sciences of the …, 2025).

For experiment [1], the target named is PTg (genetically detoxified pertussis toxin) (Bordetella pertussis, UniProt P04978+P04979). The class given is binding.
Experiment [2] addresses pertussis toxin S2 subunit, as it stands in PTg (Bordetella pertussis, UniProt P04978). As to the kind of experiment: cryo-EM structure.
In experiment [3] the target is pertussis toxin S3 subunit, as it stands in PTg (Bordetella pertussis, UniProt P04979). As to the kind of experiment: cryo-EM structure.
Experiment [4] deals with pertussis toxin (PT), enzymatically active holotoxin (Bordetella pertussis, strain of bought …, UniProt P04977;P04978;P04979;P0A3R5;P04981). As to the kind of experiment: ELISA.
Experiment [5] deals with pertussis toxin S5 subunit, as it stands in PTg (Bordetella pertussis, UniProt P04981). As to the kind of experiment: cryo-EM structure.

`CC(=O)N[C@H]1[C@H]([C@H](O)[C@H](O)CO)O[C@@](O[C@H]2[C@@H](O)[C@@H](CO)O[C@@H](O[C@H]3[C@H](O[C@@H]4O[C@@H](C)[C@@H](O)[C@@H](O)[C@@H]4O)[C@@H](NC(C)=O)C(O)O[C@@H]3CO)[C@@H]2O)(C(=O)O)C[C@@H]1O` (stereo partly drawn) [sialyl Lewis^X blood group antigen, Neu5Acα2-3Galβ1-4(Fucα1-3)GlcNAc]: the RFU entry in experiment [1] is “PTg alone binds to sialylated N-glycans, asialo-N-glycans, and other carbohydrates (such as the sialyl Lewis^X”.

B1: hu11E6 Fab (Fab, V domains shown)
VH: EVQVVESGGGLVQPGRSLRLSCTTSGFTFTDYYVSWVRQAPGKALEWLGFIRNKVNGYTTEFSSSVKGRFTISRDNSKSILYLQMNSLKIEDTAVYYCARVSYYGRGWYFDYWGQGTTLTVSS
VL: DIVMTQSPSSLSASVGDRVTISCRASQDIDNYLSWFQQKPGGTVKLLIYYTSRLHSGVPSRFSGSGSGTDYTLTISSLQPEDIATYFCQQGNTFPWTFGGGTKLEIK
In the case of B1, the binding result in experiment [2] and in experiment [3] was “binds” throughout.

B2: hu1B7mut IgG (hu1B7 HC S56A, Q61A, Q64A) (antibody, V domains shown)
VH: QVQLVQSGAEVKKPGASVKVSCKASGYKFTSYWMHWVRQAPGQGLEWIGNIFPGSGATNYAAKFAGRVTLTVDTSTSTAYMELSSLRSEDTAVYYCTRWLSGAYFDYWGQGTTVTVSS
VL: QIVLTQSPATLSVSPGERVTLTCSASSSVSFMYWYQQKPGRAPKPLIYLTSNLPSGVPARFSGSGSGTSYTLTINSLEAEDAATYYCQQWSSHPPTFGSGTKLEIK
Take B2: the binding result in experiment [4] is listed as “binds”.

B3: hu1B7 Fab (Fab, V domains shown)
VH: QVQLVQSGAEVKKPGASVKVSCKASGYKFTSYWMHWVRQAPGQGLEWIGNIFPGSGSTNYAQKFQGRVTLTVDTSTSTAYMELSSLRSEDTAVYYCTRWLSGAYFDYWGQGTTVTVSS
VL: QIVLTQSPATLSVSPGERVTLTCSASSSVSFMYWYQQKPGRAPKPLIYLTSNLPSGVPARFSGSGSGTSYTLTINSLEAEDAATYYCQQWSSHPPTFGSGTKLEIK
For B3, the binding result in experiment [5] is listed as “binds”.

B4: hu1B7 IgG (antibody, V domains shown)
VH: QVQLVQSGAEVKKPGASVKVSCKASGYKFTSYWMHWVRQAPGQGLEWIGNIFPGSGSTNYAQKFQGRVTLTVDTSTSTAYMELSSLRSEDTAVYYCTRWLSGAYFDYWGQGTTVTVSS
VL: QIVLTQSPATLSVSPGERVTLTCSASSSVSFMYWYQQKPGRAPKPLIYLTSNLPSGVPARFSGSGSGTSYTLTINSLEAEDAATYYCQQWSSHPPTFGSGTKLEIK
Regarding B4, the binding result in experiment [4] is given as “binds”.
